{
  "source": "paper PMC10897913",
  "about": "(iScience, 2024)",
  "binders": {"B1": {"name": "MAGEA3-His (natural protein, human, UniProt P43357 1-314, looked up)", "chain": "MPLEQRSQHCKPEEGLEARGEALGLVGAQAPATEEQEAASSSSTLVEVTLGEVPAAESPDPPQSPQGASSLPTTMNYPLWSQSYEDSSNQEEEGPSTFPDLESEFQAALSRKVAELVHFLLLKYRAREPVTKAEMLGSVVGNWQYFFPVIFSKASSSLQLVFGIELMEVDPIGHLYIFATCLGLSYDGLLGDNQIMPKAGLLIIVLAIIAREGDCAPEEKIWEELSVLEVFEGREDSILGDPKKLLTQHFVQENYLEYRQVPGSDPACYEFLWGPRALVETSYVKVLHHMVKISGGPHISYPPLHEWVLREGEE"}},
  "target": "T1, GST-DUB3 (human, UniProt Q6R6M4 1-530)",
  "T1 sequence (looked up)": "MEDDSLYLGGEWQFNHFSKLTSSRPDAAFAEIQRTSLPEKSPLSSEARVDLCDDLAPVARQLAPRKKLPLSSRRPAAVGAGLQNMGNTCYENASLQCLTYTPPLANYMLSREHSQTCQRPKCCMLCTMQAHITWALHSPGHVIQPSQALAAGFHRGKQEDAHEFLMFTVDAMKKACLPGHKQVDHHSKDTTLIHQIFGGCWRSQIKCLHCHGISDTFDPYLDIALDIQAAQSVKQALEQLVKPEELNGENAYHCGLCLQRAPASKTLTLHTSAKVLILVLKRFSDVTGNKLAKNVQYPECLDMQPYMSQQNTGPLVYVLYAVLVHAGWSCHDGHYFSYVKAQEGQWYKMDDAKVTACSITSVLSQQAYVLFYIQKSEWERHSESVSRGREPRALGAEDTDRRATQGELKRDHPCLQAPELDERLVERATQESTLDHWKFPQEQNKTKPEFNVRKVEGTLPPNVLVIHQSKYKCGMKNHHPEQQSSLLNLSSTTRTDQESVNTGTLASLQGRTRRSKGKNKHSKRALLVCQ",
  "experiment": "pull-down",
  "data": [
    {"binder": "B1", "values": [
      {"measurement": "binding result", "value": "binds"}
    ]}
  ]
}
